Assay results from publication PMC7772775, “The uncharacterized protein FAM47E interacts with PRMT5 and regulates its functions” (Life Science Alliance, 2020).

Target: T1, recombinant His-tagged PRMT5 (human, UniProt O14744-1 1-637)
T1 construct: Protein arginine methyltransferase 5 (PRMT5), full length, NM_006109.4; Cloned in pET28a; also called His-PRMT5; His-RMT5; source: bacterial expression, purified
Test: pull-down; 50 ug GST or GST-FAM47E on glutathione sepharose 4B, blocked with 5% BSA; 25 ug His-PRMT5 in 10 mM Tris, 150 mM NaCl, 0.5 mM EDTA, 0.1% NP40, 3 h at 4°C; washed with 300 mM NaCl, 0.5% NP40; probed with His antibody
Details: both partners purified

T1 sequence (O14744 whole entry): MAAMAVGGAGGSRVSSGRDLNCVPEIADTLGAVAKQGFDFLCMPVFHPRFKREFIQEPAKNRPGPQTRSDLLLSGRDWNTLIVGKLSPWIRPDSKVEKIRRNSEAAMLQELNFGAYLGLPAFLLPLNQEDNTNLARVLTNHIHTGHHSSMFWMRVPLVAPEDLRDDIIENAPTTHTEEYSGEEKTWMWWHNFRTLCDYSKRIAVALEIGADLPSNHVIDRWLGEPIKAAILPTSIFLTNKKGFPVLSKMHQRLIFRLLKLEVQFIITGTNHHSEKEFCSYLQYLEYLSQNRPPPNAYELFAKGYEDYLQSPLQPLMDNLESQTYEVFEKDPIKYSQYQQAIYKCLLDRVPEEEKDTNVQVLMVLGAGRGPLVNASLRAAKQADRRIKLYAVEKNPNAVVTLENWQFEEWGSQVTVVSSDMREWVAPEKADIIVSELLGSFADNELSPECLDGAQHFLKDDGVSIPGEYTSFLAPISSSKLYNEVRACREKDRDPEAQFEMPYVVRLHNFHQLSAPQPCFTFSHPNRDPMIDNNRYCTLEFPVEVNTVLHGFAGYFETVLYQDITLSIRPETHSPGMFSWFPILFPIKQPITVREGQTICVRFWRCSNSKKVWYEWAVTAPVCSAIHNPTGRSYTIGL

B1: recombinant GST-tagged FAM47E (natural protein, human, UniProt Q6ZV65-2 1-295, looked up)
chain: MQMSVPCVLSSLQNHEPNKPLFTTQSQLLSKVLEVLDPDRKLEDTWAYCQDTRKGMKEPTKLLKKHSTQVYLGPSKKTSVSNAGQWLYEEKPHKMDLLHENGPRPGLHENVCKAVSDFCKWVTTFGISDIDEEFILKQFDIDYETKPSHDALHTMKLNQVPLELKRSVGLSKLQETEFFQKLGYERKLQKPQNPYKPKWVKMRYGAWYLNPKLWKKQRVDEPLVDPEVSHKAQEENFKKELQEQEELLADLHGTVAFKDFILSRGYRTPRFLENMYIGKECKRACNKTPIKRTQA
notes: Cloned in pGEX-6P2; also called GST-FAM47E; pGEX-FAM47E; source: bacterial expression, purified
B1: binds.
